Read-outs that look alike come from different tables or passages of the source. Numbered stars: 1 amine (or outer) side, 2 acyl side, 3 side chain; on linkers, the order of the positions; unused ones are H or OH. Square brackets hold non-standard residues; d marks the D form. Side chains are listed from the residue outwards. Ends that are not written are not given here. * marks the point of attachment. γGlu = O=C(O)[C@H](CCC(=O)[*:2])N[*:1]; Stearoyl = CCCCCCCCCCCCCCCCCC(=O)*; Palmitoyl = CCCCCCCCCCCCCCCC(=O)*; Aib = CC(C)(N)C(=O)O
Tests used:
Assay in all cases: cell-based or functional assay
[1] = target: T1, human GIP receptor (human, UniProt P48546 22-466)
T1 sequence (looked up): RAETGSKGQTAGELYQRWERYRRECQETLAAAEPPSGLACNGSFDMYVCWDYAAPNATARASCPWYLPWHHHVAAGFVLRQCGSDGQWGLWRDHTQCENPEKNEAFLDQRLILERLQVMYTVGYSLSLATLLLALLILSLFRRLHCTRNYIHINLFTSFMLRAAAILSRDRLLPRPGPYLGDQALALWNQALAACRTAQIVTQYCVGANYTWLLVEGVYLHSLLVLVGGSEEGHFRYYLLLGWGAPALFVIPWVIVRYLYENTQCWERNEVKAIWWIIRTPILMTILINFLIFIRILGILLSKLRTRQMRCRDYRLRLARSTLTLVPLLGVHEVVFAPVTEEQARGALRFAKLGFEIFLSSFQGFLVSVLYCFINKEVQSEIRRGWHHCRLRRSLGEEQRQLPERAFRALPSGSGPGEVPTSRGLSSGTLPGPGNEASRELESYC

[2] = target: T2, human GLP-1 receptor (human, UniProt P43220 24-463)
[3] = target: T3, human glucagon receptor (human, UniProt P47871 26-477)
[4] = target: T1, human GIP receptor; remark: listed apart in the source
[5] = target: T2, human GLP-1 receptor; remark: listed apart in the source
[6] = target: T3, human glucagon receptor; remark: listed apart in the source

T3 sequence (P47871 26-477): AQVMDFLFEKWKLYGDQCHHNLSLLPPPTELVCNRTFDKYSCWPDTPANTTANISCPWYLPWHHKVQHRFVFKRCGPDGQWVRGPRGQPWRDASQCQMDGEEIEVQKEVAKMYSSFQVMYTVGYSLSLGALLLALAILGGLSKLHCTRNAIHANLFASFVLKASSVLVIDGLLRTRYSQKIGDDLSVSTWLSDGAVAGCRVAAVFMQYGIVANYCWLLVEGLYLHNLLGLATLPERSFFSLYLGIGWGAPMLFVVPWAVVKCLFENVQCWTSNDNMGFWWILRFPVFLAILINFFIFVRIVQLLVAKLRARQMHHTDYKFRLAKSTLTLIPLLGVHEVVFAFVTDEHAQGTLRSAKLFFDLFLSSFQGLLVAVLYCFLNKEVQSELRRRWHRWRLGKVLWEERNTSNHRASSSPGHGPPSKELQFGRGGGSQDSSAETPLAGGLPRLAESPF

B1: SEQ ID NO: 8 (peptide)
peptide: H[dS]HGTFTSDLSKQK([γGlu-Stearoyl])DEEAARLFIEWL[Aib]AGGPSSGAPPPS-NH2
modifications: N-terminus assumed
SMILES: CCCCCCCCCCCCCCCCCC(=O)N[C@@H](CCC(=O)NCCCC[C@H](NC(=O)[C@H](CCC(N)=O)NC(=O)[C@H](CCCCN)NC(=O)[C@H](CO)NC(=O)[C@H](CC(C)C)NC(=O)[C@H](CC(=O)O)NC(=O)[C@H](CO)NC(=O)[C@@H](NC(=O)[C@H](Cc1ccccc1)NC(=O)[C@@H](NC(=O)CNC(=O)[C@H](Cc1c[nH]cn1)NC(=O)[C@@H](CO)NC(=O)[C@@H](N)Cc1c[nH]cn1)[C@@H](C)O)[C@@H](C)O)C(=O)N[C@@H](CC(=O)O)C(=O)N[C@@H](CCC(=O)O)C(=O)N[C@@H](CCC(=O)O)C(=O)N[C@@H](C)C(=O)N[C@@H](C)C(=O)N[C@@H](CCCNC(=N)N)C(=O)N[C@@H](CC(C)C)C(=O)N[C@@H](Cc1ccccc1)C(=O)N[C@H](C(=O)N[C@@H](CCC(=O)O)C(=O)N[C@@H](Cc1c[nH]c2ccccc12)C(=O)N[C@@H](CC(C)C)C(=O)NC(C)(C)C(=O)N[C@@H](C)C(=O)NCC(=O)NCC(=O)N1CCC[C@H]1C(=O)N[C@@H](CO)C(=O)N[C@@H](CO)C(=O)NCC(=O)N[C@@H](C)C(=O)N1CCC[C@H]1C(=O)N1CCC[C@H]1C(=O)N1CCC[C@H]1C(=O)N[C@@H](CO)C(N)=O)[C@@H](C)CC)C(=O)O
EC50 hGIP-R [1]: 0.538 nM
EC50 hGLP-1R [2]: 0.0018 nM
EC50 hGlucagon-R [3]: 0.0048 nM

B2: SEQ ID NO: 17 (peptide)
peptide: H[dS]QGTFTSDLSKQK([γGlu-γGlu-Palmitoyl])DEEAVRLFIEWL[Aib]AGGPSSGAPPPS-NH2
modifications: N-terminus assumed
SMILES: CCCCCCCCCCCCCCCC(=O)N[C@@H](CCC(=O)N[C@@H](CCC(=O)NCCCC[C@H](NC(=O)[C@H](CCC(N)=O)NC(=O)[C@H](CCCCN)NC(=O)[C@H](CO)NC(=O)[C@H](CC(C)C)NC(=O)[C@H](CC(=O)O)NC(=O)[C@H](CO)NC(=O)[C@@H](NC(=O)[C@H](Cc1ccccc1)NC(=O)[C@@H](NC(=O)CNC(=O)[C@H](CCC(N)=O)NC(=O)[C@@H](CO)NC(=O)[C@@H](N)Cc1c[nH]cn1)[C@@H](C)O)[C@@H](C)O)C(=O)N[C@@H](CC(=O)O)C(=O)N[C@@H](CCC(=O)O)C(=O)N[C@@H](CCC(=O)O)C(=O)N[C@@H](C)C(=O)N[C@H](C(=O)N[C@@H](CCCNC(=N)N)C(=O)N[C@@H](CC(C)C)C(=O)N[C@@H](Cc1ccccc1)C(=O)N[C@H](C(=O)N[C@@H](CCC(=O)O)C(=O)N[C@@H](Cc1c[nH]c2ccccc12)C(=O)N[C@@H](CC(C)C)C(=O)NC(C)(C)C(=O)N[C@@H](C)C(=O)NCC(=O)NCC(=O)N1CCC[C@H]1C(=O)N[C@@H](CO)C(=O)N[C@@H](CO)C(=O)NCC(=O)N[C@@H](C)C(=O)N1CCC[C@H]1C(=O)N1CCC[C@H]1C(=O)N1CCC[C@H]1C(=O)N[C@@H](CO)C(N)=O)[C@@H](C)CC)C(C)C)C(=O)O)C(=O)O
EC50 hGIP-R [1]: 7.08 nM
EC50 hGLP-1R [2]: 0.0024 nM
EC50 hGlucagon-R [3]: 0.0471 nM

B3: SEQ ID NO: 33 (peptide)
peptide: H-HSQGTFTSDLSKQK([γGlu-γGlu-Palmitoyl])DEEAARLFIEWLKAGGPSSGAPPPS-NH2
EC50 hGIP-1 [4]: 0.0708 nM
EC50 hGLP-1R [5]: 0.001 nM
EC50 hGlucagon-R [6]: 0.0014 nM

B4: SEQ ID NO: 10 (peptide)
peptide: H[dS]QGTFTSDLSKQK([γGlu-Stearoyl])EEEAVRLFIEWL[Aib]AGGPSSGAPPPS-NH2
modifications: N-terminus assumed
SMILES: CCCCCCCCCCCCCCCCCC(=O)N[C@@H](CCC(=O)NCCCC[C@H](NC(=O)[C@H](CCC(N)=O)NC(=O)[C@H](CCCCN)NC(=O)[C@H](CO)NC(=O)[C@H](CC(C)C)NC(=O)[C@H](CC(=O)O)NC(=O)[C@H](CO)NC(=O)[C@@H](NC(=O)[C@H](Cc1ccccc1)NC(=O)[C@@H](NC(=O)CNC(=O)[C@H](CCC(N)=O)NC(=O)[C@@H](CO)NC(=O)[C@@H](N)Cc1c[nH]cn1)[C@@H](C)O)[C@@H](C)O)C(=O)N[C@@H](CCC(=O)O)C(=O)N[C@@H](CCC(=O)O)C(=O)N[C@@H](CCC(=O)O)C(=O)N[C@@H](C)C(=O)N[C@H](C(=O)N[C@@H](CCCNC(=N)N)C(=O)N[C@@H](CC(C)C)C(=O)N[C@@H](Cc1ccccc1)C(=O)N[C@H](C(=O)N[C@@H](CCC(=O)O)C(=O)N[C@@H](Cc1c[nH]c2ccccc12)C(=O)N[C@@H](CC(C)C)C(=O)NC(C)(C)C(=O)N[C@@H](C)C(=O)NCC(=O)NCC(=O)N1CCC[C@H]1C(=O)N[C@@H](CO)C(=O)N[C@@H](CO)C(=O)NCC(=O)N[C@@H](C)C(=O)N1CCC[C@H]1C(=O)N1CCC[C@H]1C(=O)N1CCC[C@H]1C(=O)N[C@@H](CO)C(N)=O)[C@@H](C)CC)C(C)C)C(=O)O
EC50 hGIP-R [1]: 0.982 nM
EC50 hGLP-1R [2]: 0.0065 nM
EC50 hGlucagon-R [3]: 0.14 nM

B5: SEQ ID NO: 12 (peptide)
peptide: HXQGTFTSDLSKQKDEEAARLFIEWLXAXGPSSGAPPPS
modifications: D-Ser at 2; Lys 14 side chain K(γE-γE-x53) = (S)-4-Carboxy-4-((S)-4-carboxy-4-hexadecanoylamino-butyrylamino)-butyryl-; Aib at 27; D-Ala at 29; C-terminal amide
EC50 hGIP-R [1]: 0.336 nM
EC50 hGLP-1R [2]: 0.0028 nM
EC50 hGlucagon-R [3]: 0.066 nM

B6: SEQ ID NO: 15 (peptide)
peptide: HXQGTFTSDLSKQKDEEAARLFIEWLXSGGPSSGAPPPS
modifications: D-Ser at 2; Lys 14 side chain K(γE-γE-x53) = (S)-4-Carboxy-4-((S)-4-carboxy-4-hexadecanoylamino-butyrylamino)-butyryl-; Aib at 27; C-terminal amide
EC50 hGIP-R [1]: 5.5 nM
EC50 hGLP-1R [2]: 0.0018 nM
EC50 hGlucagon-R [3]: 0.0123 nM

B7: SEQ ID NO: 19 (peptide)
peptide: HXQGTFTSDLSKQKDEEAARLFIEWLXKGGPSSGAPPPS
modifications: D-Ser at 2; Lys 14 side chain K(γE-γE-x53) = (S)-4-Carboxy-4-((S)-4-carboxy-4-hexadecanoylamino-butyrylamino)-butyryl-; Aib at 27; C-terminal amide
EC50 hGLP-1R [2]: 0.002 nM

B8: SEQ ID NO: 25 (peptide)
peptide: HXQGTFTSDLSKQKDEEAARLFIEWLXKXGPSSGAPPPS
modifications: D-Ser at 2; Lys 14 side chain K(γE-x70) = (S)-4-Carboxy-4-octadecanoylamino-butyryl-; Aib at 27; D-Ala at 29; C-terminal amide
EC50 hGIP-R [1]: 8.32 nM
EC50 hGLP-1R [2]: 0.0021 nM
EC50 hGlucagon-R [3]: 0.0432 nM

B9: SEQ ID NO: 21 (peptide)
peptide: HXQGTFTSDLSKQKDEEAARLFIEWLXAGGPSSGAPPPS
modifications: D-Ser at 2; Lys 14 side chain K(AEEAc-AEEAc- E-x70) = (2-{2-[2-(2-{2-[(4S)-4-Carboxy-4-octadecanoylamino-butyrylamino]-ethoxy}-ethoxy)-acetylamino]-ethoxy}-ethoxy)-acetyl; Aib at 27; C-terminal amide
EC50 hGIP-R [1]: 2.45 nM
EC50 hGLP-1R [2]: 0.001 nM
EC50 hGlucagon-R [3]: 0.0091 nM

B10: SEQ ID NO: 22 (peptide)
peptide: HXQGTFTSDLSKQKDEEAARLFIEWLXAGGPSSGAPPPS
modifications: D-Ser at 2; Lys 14 side chain K(AEEAc-AEEAc-AEEAc-x70) = [2-(2-{2-[2-(2-{2-[2-(2-Octadecanoylamino-ethoxy)-ethoxy]-acetylamino}-ethoxy)-ethoxy]-acetylamino}-ethoxy)-ethoxy]-acetyl-; Aib at 27; C-terminal amide
EC50 hGIP-R [1]: 4.16 nM
EC50 hGLP-1R [2]: 0.0018 nM
EC50 hGlucagon-R [3]: 0.0064 nM

B11: SEQ ID NO: 24 (peptide)
peptide: HXQGTFTSDLSKQKDEEAARLFIEWLXKXGPSSGAPPPS
modifications: D-Ser at 2; Lys 14 side chain K(γE-γE-x53) = (S)-4-Carboxy-4-((S)-4-carboxy-4-hexadecanoylamino-butyrylamino)-butyryl-; Aib at 27; D-Ala at 29; C-terminal amide
EC50 hGIP-R [1]: 14.1 nM
EC50 hGLP-1R [2]: 0.0024 nM
EC50 hGlucagon-R [3]: 0.0765 nM

B12: SEQ ID NO: 18 (peptide)
peptide: HXQGTFTSDLSKQKDEEAARLFIEWLXSTGPSSGAPPPS
modifications: D-Ser at 2; Lys 14 side chain K(γE-γE-x53) = (S)-4-Carboxy-4-((S)-4-carboxy-4-hexadecanoylamino-butyrylamino)-butyryl-; Aib at 27; C-terminal amide
EC50 hGIP-R [1]: 27.5 nM
EC50 hGLP-1R [2]: 0.0036 nM
EC50 hGlucagon-R [3]: 0.0103 nM

B13: SEQ ID NO: 20 (peptide)
peptide: HXQGTFTSDLSKQKDEEAARLFIEWLXAGGPSSGAPPPS
modifications: D-Ser at 2; Lys 14 side chain K(AEEAc-AEEAc- E-x53) = (2-{2-[2-(2-{2-[(4S)-4-Carboxy-4-hexadecanoylamino-butyrylamino]-ethoxy}-ethoxy)-acetylamino]-ethoxy}-ethoxy)-acetyl; Aib at 27; C-terminal amide
EC50 hGIP-R [1]: 20.2 nM
EC50 hGLP-1R [2]: 0.0043 nM
EC50 hGlucagon-R [3]: 0.0884 nM

B14: SEQ ID NO: 27 (peptide)
peptide: H[dS]HGTFTSDLSKQK([γGlu-γGlu-Palmitoyl])EEEAARLFIEWL[Aib]K[dA]GPSSGAPPPS-NH2
modifications: N-terminus assumed
SMILES: CCCCCCCCCCCCCCCC(=O)N[C@@H](CCC(=O)N[C@@H](CCC(=O)NCCCC[C@H](NC(=O)[C@H](CCC(N)=O)NC(=O)[C@H](CCCCN)NC(=O)[C@H](CO)NC(=O)[C@H](CC(C)C)NC(=O)[C@H](CC(=O)O)NC(=O)[C@H](CO)NC(=O)[C@@H](NC(=O)[C@H](Cc1ccccc1)NC(=O)[C@@H](NC(=O)CNC(=O)[C@H](Cc1c[nH]cn1)NC(=O)[C@@H](CO)NC(=O)[C@@H](N)Cc1c[nH]cn1)[C@@H](C)O)[C@@H](C)O)C(=O)N[C@@H](CCC(=O)O)C(=O)N[C@@H](CCC(=O)O)C(=O)N[C@@H](CCC(=O)O)C(=O)N[C@@H](C)C(=O)N[C@@H](C)C(=O)N[C@@H](CCCNC(=N)N)C(=O)N[C@@H](CC(C)C)C(=O)N[C@@H](Cc1ccccc1)C(=O)N[C@H](C(=O)N[C@@H](CCC(=O)O)C(=O)N[C@@H](Cc1c[nH]c2ccccc12)C(=O)N[C@@H](CC(C)C)C(=O)NC(C)(C)C(=O)N[C@@H](CCCCN)C(=O)N[C@H](C)C(=O)NCC(=O)N1CCC[C@H]1C(=O)N[C@@H](CO)C(=O)N[C@@H](CO)C(=O)NCC(=O)N[C@@H](C)C(=O)N1CCC[C@H]1C(=O)N1CCC[C@H]1C(=O)N1CCC[C@H]1C(=O)N[C@@H](CO)C(N)=O)[C@@H](C)CC)C(=O)O)C(=O)O
EC50 hGIP-R [1]: 3.22 nM
EC50 hGLP-1R [2]: 0.0021 nM
EC50 hGlucagon-R [3]: 0.0554 nM

B15: SEQ ID NO: 26 (peptide)
peptide: H[dS]HGTFTSDLSKQK([γGlu-γGlu-Palmitoyl])DEEAARLFIEWL[Aib]K[dA]GPSSGAPPPS-NH2
EC50 hGIP-R [1]: 5.53 nM
EC50 hGLP-1R [2]: 0.002 nM
EC50 hGlucagon-R [3]: 0.0406 nM

— patent US20150322128A1 (Sanofi, published 2015)
